Earlier results on one substance are cited in patent US6660905B1, “Mice comprising engrafted functional human hepatocytes” (The Board of Trustees of the Leland Stanford Junior …, priority 1999, dated 2003).

Consider HGF: human hepatocyte growth factor, for which the half-life entry is “on the order of minutes”.
